Laboratory results published in paper PMC9371684.

How the values were obtained:
[1] = target: v5-tagged full-length GIGYF2 (1–1,320) (human); assay: proximity ligation
[2] = target: v5-tagged full-length GIGYF2 (1–1,320) (human); assay: proximity ligation; cells cotransfected with v5-GIGYF2, HA-4EHP and FLAG-empty vector; fixed 24 h after transfection; PLA with v5 and HA antibodies

Sequence of v5-tagged full-length GIGYF2 (1–1,320) (human) (Q6Y7W6 2-1299): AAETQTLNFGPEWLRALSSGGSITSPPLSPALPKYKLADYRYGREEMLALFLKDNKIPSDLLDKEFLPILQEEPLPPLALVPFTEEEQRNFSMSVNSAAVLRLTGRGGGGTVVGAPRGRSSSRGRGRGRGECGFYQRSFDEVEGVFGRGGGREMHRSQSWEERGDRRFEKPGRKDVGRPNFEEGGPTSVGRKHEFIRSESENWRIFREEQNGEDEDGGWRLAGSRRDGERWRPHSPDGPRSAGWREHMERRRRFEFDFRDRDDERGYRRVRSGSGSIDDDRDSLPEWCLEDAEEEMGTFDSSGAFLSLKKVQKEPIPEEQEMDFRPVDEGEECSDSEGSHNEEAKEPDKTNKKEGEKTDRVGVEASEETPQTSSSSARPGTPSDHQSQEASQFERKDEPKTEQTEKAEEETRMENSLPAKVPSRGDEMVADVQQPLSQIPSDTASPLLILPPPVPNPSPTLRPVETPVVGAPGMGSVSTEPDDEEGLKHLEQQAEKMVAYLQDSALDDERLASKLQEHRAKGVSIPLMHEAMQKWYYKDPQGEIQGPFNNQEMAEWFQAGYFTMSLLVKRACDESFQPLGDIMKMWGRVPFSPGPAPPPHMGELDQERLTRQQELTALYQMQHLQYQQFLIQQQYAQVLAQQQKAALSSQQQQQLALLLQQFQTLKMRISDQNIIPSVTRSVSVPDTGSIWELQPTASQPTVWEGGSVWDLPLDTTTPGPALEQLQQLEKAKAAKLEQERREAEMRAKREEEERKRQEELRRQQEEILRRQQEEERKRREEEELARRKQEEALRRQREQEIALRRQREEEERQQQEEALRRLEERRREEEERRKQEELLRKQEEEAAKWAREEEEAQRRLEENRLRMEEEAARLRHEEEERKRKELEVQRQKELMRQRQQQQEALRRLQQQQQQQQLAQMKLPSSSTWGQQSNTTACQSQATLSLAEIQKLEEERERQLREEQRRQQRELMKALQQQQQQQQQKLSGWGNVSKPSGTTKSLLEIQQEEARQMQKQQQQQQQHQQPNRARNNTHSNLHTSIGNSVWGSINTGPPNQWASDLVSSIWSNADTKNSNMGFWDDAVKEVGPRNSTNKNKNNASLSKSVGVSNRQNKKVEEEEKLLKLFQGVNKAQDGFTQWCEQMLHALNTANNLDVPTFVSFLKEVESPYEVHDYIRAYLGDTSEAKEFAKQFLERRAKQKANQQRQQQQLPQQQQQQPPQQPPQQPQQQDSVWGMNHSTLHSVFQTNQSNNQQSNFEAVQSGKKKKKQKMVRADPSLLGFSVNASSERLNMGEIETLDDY

In the case of “HA-tagged 4EHP (from UniProt O60573 1-245)”, the PLA punctate per cell (punctate per cell) [1] is reported as 61 and the PLA punctate per cell (punctate per cell) [2] is reported as 19.8.
